# Source: patent publication US6955900B1, “Methods for producing polypeptide binding sites, monoclonal antibodies and compositions thereof” (The Scripps Research Institute, priority 1993, dated 2005)
# Read-outs that look alike come from different tables or passages of the source. Bridge positions count the residues as written; N and C are the ends. Ends that are not written are not given here.
# What was measured:
# αvβ3 [1] = target: T1, αvβ3 (Homo sapiens, UniProt P05106+P06756); assay: purified ligand-receptor binding assay, inhibition of 125I-vitronectin binding to αvβ3; conditions: for blocking of vitronectin (ligand) binding to αvβ3: result in words
# T1 construct: human placentas were obtained, cut into small pieces and extracted; from tissue
# T1 sequence (P06756 31-889 limits assumed): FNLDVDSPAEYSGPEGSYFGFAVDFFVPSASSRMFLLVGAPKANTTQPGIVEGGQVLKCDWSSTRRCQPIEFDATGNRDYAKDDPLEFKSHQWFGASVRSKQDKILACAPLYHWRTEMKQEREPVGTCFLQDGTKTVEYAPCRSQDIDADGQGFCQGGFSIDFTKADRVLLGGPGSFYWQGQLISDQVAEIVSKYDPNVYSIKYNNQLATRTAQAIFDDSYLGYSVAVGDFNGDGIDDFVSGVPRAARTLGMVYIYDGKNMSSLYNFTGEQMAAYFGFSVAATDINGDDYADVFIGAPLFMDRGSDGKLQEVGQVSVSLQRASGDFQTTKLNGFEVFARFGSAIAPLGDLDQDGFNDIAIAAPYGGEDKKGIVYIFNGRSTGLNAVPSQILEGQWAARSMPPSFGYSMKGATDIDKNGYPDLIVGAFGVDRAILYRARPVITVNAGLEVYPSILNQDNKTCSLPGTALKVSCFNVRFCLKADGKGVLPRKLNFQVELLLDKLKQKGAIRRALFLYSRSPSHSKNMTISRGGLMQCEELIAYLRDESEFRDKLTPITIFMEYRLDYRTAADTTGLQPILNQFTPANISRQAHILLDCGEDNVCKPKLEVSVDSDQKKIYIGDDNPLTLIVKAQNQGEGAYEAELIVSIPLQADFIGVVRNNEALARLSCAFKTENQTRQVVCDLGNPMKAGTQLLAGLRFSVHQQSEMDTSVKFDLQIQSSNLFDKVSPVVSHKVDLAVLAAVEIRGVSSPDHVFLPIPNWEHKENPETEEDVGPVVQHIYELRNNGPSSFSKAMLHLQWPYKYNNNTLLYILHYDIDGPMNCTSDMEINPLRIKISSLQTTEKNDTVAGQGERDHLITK
# T1 sequence (P06756 891-1048 partner limits assumed): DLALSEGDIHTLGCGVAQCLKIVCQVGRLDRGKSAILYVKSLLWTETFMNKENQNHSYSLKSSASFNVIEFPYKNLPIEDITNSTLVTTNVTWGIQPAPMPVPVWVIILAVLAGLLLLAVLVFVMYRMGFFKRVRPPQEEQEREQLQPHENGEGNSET
# T1 sequence (P05106 27-788): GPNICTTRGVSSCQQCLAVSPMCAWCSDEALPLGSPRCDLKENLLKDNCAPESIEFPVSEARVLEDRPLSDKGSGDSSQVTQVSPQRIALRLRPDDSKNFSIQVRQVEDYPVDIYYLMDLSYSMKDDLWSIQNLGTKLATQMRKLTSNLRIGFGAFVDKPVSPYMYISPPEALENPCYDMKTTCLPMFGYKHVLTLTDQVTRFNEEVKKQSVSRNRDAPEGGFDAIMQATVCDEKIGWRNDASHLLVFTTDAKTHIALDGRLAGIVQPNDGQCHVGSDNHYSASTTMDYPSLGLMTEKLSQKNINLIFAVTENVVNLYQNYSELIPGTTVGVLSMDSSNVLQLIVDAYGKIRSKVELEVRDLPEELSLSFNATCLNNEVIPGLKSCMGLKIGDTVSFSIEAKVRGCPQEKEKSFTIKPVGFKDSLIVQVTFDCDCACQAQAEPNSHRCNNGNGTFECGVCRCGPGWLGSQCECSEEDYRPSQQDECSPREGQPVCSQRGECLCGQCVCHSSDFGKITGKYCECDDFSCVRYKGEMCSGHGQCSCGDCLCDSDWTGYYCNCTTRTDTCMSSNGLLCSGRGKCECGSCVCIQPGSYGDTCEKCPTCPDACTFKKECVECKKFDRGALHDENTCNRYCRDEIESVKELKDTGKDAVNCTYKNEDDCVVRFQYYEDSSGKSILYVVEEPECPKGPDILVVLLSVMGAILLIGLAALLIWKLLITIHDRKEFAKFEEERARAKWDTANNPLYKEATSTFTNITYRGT
# Experimental: (§1) The method for these binding studies has been described by Barbas et al., Proc. Natl. Acad. Sci., USA, 90:10003-10007 (1993) and Smith et al., J. Biol. Chem., 265:11008-11013 (1990), the disclosures of which are hereby incorporated by reference.
# (§2) Briefly, selected purified integrins were separately immobilized in Titertek microtiter wells at a coating concentration of 50 ng per well. After incubation for 18 hr at 4° C., non-specific binding sites on the plate were blocked with 10 mg/ml of bovine serum albumin in Tris-buffered saline. For inhibition studies, a range of antibody was tested for the ability to block the binding of ^125I-vitronectin to αvβ3 and ^125I-fibrinogen to αIIbβ3. The choice to use two different ligands in comparing the inhibitory activity of antibodies was a compromise based on a complicated series of circumstances. […] In contrast, Ca^2+ is essential for the rapid binding of fibrinogen to αIIbβ3. […] Therefore, the optimal ligand was selected for each integrin. This corresponds to vitronectin for αvβ3 and fibrinogen for αIIbβ3. Radiolabeled ligands were used at concentrations of 1 nM and binding was challenged with unlabeled antibody.
# (§3) Following a three hour incubation free ligand was removed by washing and bound ligand was detected by gamma counting. The data from this analysis were highly reproducible with the error between data points typically below 11%. Data are expressed as the average of triplicate data points. All experiments were repeated at least four times.
# αIIbβ3 [2] = target: T2, αIIbβ3 (Homo sapiens, UniProt P05106+P08514); assay: purified ligand-receptor binding assay, inhibition of 125I-fibrinogen binding to αIIbβ3; design: from tissue; the procedure itself is in U.S. Pat. No. 5,114,842; conditions: for blocking of fibrinogen (ligand) binding to gpIIb/IIIa (αIIbβ3): result in words
# Experimental: as §1, §2, §3
# αvβ5 [3] = target: T3, αvβ5 (Homo sapiens, UniProt P06756+P18084); assay: purified ligand-receptor binding assay, inhibition of 125I-vitronectin binding to αvβ5; conditions: result in words
# T3 construct: human placentas were obtained, cut into small pieces and extracted; from tissue
# T3 sequence (P06756 31-889 limits assumed): as the sequence (P06756 31-889 limits assumed) above
# T3 sequence (P06756 891-1048 partner limits assumed): as the sequence (P06756 891-1048 partner limits assumed) above
# T3 sequence (P18084 24-799): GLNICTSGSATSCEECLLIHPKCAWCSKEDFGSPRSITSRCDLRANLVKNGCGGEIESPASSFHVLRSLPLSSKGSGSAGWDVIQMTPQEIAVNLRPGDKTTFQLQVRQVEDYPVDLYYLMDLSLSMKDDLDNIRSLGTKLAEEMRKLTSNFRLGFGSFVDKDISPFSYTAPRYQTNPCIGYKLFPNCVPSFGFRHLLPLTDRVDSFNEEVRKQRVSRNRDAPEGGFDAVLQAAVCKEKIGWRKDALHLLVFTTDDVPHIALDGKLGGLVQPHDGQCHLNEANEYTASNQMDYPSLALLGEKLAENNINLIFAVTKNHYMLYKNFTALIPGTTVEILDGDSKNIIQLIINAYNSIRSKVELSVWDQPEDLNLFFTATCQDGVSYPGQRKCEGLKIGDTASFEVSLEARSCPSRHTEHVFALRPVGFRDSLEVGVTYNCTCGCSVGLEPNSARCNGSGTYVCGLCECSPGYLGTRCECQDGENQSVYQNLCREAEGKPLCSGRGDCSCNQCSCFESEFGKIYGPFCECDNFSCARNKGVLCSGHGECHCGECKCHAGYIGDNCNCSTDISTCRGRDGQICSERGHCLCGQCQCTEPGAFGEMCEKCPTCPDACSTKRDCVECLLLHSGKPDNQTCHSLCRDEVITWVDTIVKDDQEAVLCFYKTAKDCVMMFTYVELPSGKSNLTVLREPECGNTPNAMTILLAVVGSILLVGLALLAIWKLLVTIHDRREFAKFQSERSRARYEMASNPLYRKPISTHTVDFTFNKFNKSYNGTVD
# Experimental: To determine if the CDR was an appropriate vehicle for displaying and identifying inhibitory peptide motifs, the ability of synthetic peptides derived from the sequence of Fab 9 to block ligand binding to αvβ3, αvβ5 and αIIbβ3 was measured. One peptide synthesized as described below for use in this assay contained a RGD motif positioned on the apex of the CDR3 loop but lacked the remaining flanking regions of the CDR3 and rest of the heavy chain. The sequence of the peptide is listed in SEQ ID NO 12. A peptide having the same sequence but flanked by glycine residues to prevent cyclization was also prepared and has the amino acid residue sequence in SEQ ID NO 68. A longer peptide, having the amino acid residue sequence in SEQ ID NO 4 containing all of the amino acids in SEQ ID NO 12 along with flanking amino acid residues, was also prepared. These assays were performed in order to assess the ability of this particular peptide to inhibit the binding of a high affinity ligand to a receptor, namely the binding of vitronectin to αv/β3 or αv/β5 and fibrinogen to gpIIb/IIIa.
# The synthetic peptides from Fab 9 were tested for the ability to antagonize αvβ3 and αIIbβ3 and αvβ5 in purified ligand-receptor binding assays performed as described in Example 5b. […]
# platelets = assay: platelet aggregation assay; assay type: cell-based, human
# Experimental: Platelet aggregation assays were performed as described in U.S. Pat. No. 5,114,842. […] When the concentration of the RGDC2-binding site Fab was decreased by half, the amount of platelet aggregation increased similarly and thus the amount of light transmitted increased. […] All of the initial selection and characterization of the semi-synthetic Fab antibodies of this invention relied largely upon the use of purified integrins. Since the MTF-antibodies blocked the function of αIIbβ3 and have potential therapeutic use in the prevention of thrombosis, the ability of recombinant Fabs to block platelet aggregation was measured as described in Example 4. Washed platelets (1×10^8) were placed in Tyrode's buffer containing 2 mM Ca^2+ and 100 ug/ml of fibrinogen and aggregation was stimulated by addition of 20 uM ADP. Aggregation was measured as light transmission through the platelet suspension using a Scienceo aggregometer.
# αvβ5 [4] = target: T3, αvβ5; assay: ELISA on αv/β5-coated wells; assay type: binding; conditions: result in words, compared to BSA background
# Experimental: (§4) Preliminary ELISA assays were performed to first characterize the binding specificity of the panned phage monoclonal antibodies prepared above toward related integrins. For ELISA, 1 ug/well of the purified VNRs prepared in Example 3A was separately admixed to individual wells of a microtiter plate and maintained at 4 C overnight to allow the protein solution to adhere to the walls of the well. After the maintenance period, the wells were washed once with PBS and thereafter maintained with a solution of 3% BSA to block nonspecific sites on the wells. The plates were maintained at 37 C for 1 hour after which time the plates were inverted and shaked to remove the BSA solution. Soluble Fab heterodimers expressing the synthetic binding site proteins-prepared in Example 3B were then admixed separately to each well and maintained at 37 C for 1 hour to form a immunoreaction products. Following the maintenance period, the wells were washed 10 times with PBS to remove unbound soluble antibody and then maintained with a secondary goat anti-human FAB conjugated to alkaline phosphatase diluted in PBS containing 1% BSA. The wells were maintained at 37 C for 1 hour after which the wells were washed 10 times with PBS followed by development with p-nitrophenyl phosphate.
# gpIIb/IIIa [5] = target: T4, gpIIb/IIIa (Homo sapiens, UniProt P05106+P08514); assay: ELISA on gpIIb/IIIa-coated surfaces; assay type: binding; conditions: result in words
# T4 construct: from tissue; the procedure itself is in U.S. Pat. No. 5,114,842
# gpIIb/IIIa [6] = target: T4, gpIIb/IIIa; assay: gpIIb/IIIa sandwich ELISA on fibrinogen-coated plates; assay type: binding
# Experimental: A gpIIb/IIIa sandwich ELISA assay was performed on 10 ug/ml (100 ul) of fibrinogen-coated plates. After blocking the plate as described above, the RGD-expressing, Fab, Mab 19, was admixed with purified gpIIb/IIIa receptor. After allowing the RGD-expressing Fab and receptor admixture to immunoreact with the fibrinogen, the wells were washed and the amount of bound gpIIb/IIIa was determined using an anti-IIIa antibody.
# αvβ3 [7] = target: T1, αvβ3; assay: ELISA on αv/β3-coated wells; assay type: binding; conditions: result in words, compared to BSA background
# Experimental: as §4
# αIIbβ3 [8] = target: T2, αIIbβ3; conditions: solid-phase radioligand binding assays, recently reported; cited from earlier work
# αIIbβ3 [9] = target: T2, αIIbβ3; assay: surface plasmon resonance (BIAcore), Fab binding to immobilized αIIbβ3; design: from tissue; the procedure itself is in U.S. Pat. No. 5,114,842; conditions: using SPR
# Experimental: A comparison of absolute antibody affinities was then performed with surface plasmon resonance, which is a highly accurate means of assessing ligand affinities in real time. See, Altshuh et al., Biochem., 31:6298-6304 (1992); Chaiken et al., Anal. Biochem., 201:197-210 (1992); Eddowes, Biosensors, 3:1-15 (1987); Fagerstam et al., J. Chromatoar., 597:397-410 (1992); Johnsson et al., Anal. Biochem., 198:268-277 (1991); Karlsson et al., J. Immunol. Methods, 145:229-240 (1991); and VanCott et al., J. Immunol. Methods, 146:163-176 (1992), the disclosures of which are hereby incorporated by reference. SPR is a phenomena that occurs when incoming photons interact with electrons in a biosensor chip. […]
# The association and dissociation rate constants (k1 and k−1) for semi-synthetic antibodies were obtained from BIAcore measurements as follows. […] At the end of the association phase the flow was changed to buffer without ligand and the change in response unit (RU) was measured as a function of time. […]
# To obtain the association rate constant k1, an antibody was passed through the sensor chip containing unoccupied integrin and the response unit as a result of binding is again measured as a function of time. The association rate constant, k1, is calculated as shown in equation 2. k1=[((dRU/dt)/RU)−k−1]/L Equation 2 L is the concentration of ligand. […]
# [10] = listed as Fab 9-derived peptide in SEQ ID NO 68
substance,measurement,setting,value
GSFGRGDIRNG [Lin-9],peptide concentration reaching maximal inhibition of binding to αv/β3,αvβ3 [1],10^−5 M
same,blocking of vitronectin (ligand) binding to αvβ3,αvβ3 [1],inhibited
same,blocking of vitronectin (ligand) binding to αvβ3,αvβ3 [1]; [10],completely inhibited
same,peptide concentration reaching maximal inhibition of binding to gpIIb/IIIa,αIIbβ3 [2],10^−5 M
same,blocking of fibrinogen (ligand) binding to gpIIb/IIIa (αIIbβ3),αIIbβ3 [2],inhibited
same,blocking of fibrinogen (ligand) binding to gpIIb/IIIa (αIIbβ3),αIIbβ3 [2]; [10],completely inhibited
same,blocking of vitronectin binding to αvβ5,αvβ5 [3],did not antagonize
same,blocking of vitronectin binding to αvβ5,αvβ5 [3]; [10],No inhibition
CSFGRGDIRNC (CSFGRGDIRNC-NH2; disulfide 1-11 (inferred); not fully specified) [circularized Fab 9-derived peptide],blocking of vitronectin (ligand) binding to αvβ3,αvβ3 [1]; listed as VnRB3-5-derived peptide,inhibits
Mab 19: Fab-displayed RGDC2 binding site VGCGRLRGDDPWCYYMDV (SEQ ID NO 3) (Fab-displayed binding site),inhibition of platelet aggregation,"platelets; 6.6 uM purified soluble Fab, light transmission",inhibited the aggregation of platelets in a time-dependent manner
same,inhibition of platelet aggregation compared with murine Fab LIBS-1,platelets; simultaneously performed assays,equally effective
same,"binding to αv/β5 (ELISA, immunoreaction)",αvβ5 [4],not cross-react
same,"binding to gpIIb/IIIa (ELISA, immunoreaction)",gpIIb/IIIa [5],specific for gpIIb/IIIa
same,Fab concentration of maximal inhibition of gpIIb/IIIa binding to fibrinogen,gpIIb/IIIa [6],5 µM
same,blocking of gpIIb/IIIa binding to fibrinogen,gpIIb/IIIa [6]; result in words,blocked the binding of gpIIb/IIIa to fibrinogen in a dose-dependent manner
same,"binding to αv/β3 (ELISA, immunoreaction)",αvβ3 [7],not cross-react
"peptides derived from HCDR3 of MTF-32: circular CSFGRTDQRNC (SEQ ID NO 71), linear GCSFGRTDQRNCY (SEQ ID NO 72) [peptide 32]",blocking of vitronectin (ligand) binding to αvβ3,αvβ3 [1],did not interfere
same,blocking of fibrinogen (ligand) binding to gpIIb/IIIa (αIIbβ3),αIIbβ3 [2],blocked
"peptides derived from HCDR3 of MTF-40: circular CSFGRNDSRNC (SEQ ID NO 69), linear GCSFGRNDSRNCY (SEQ ID NO 70) [peptide 40]",blocking of vitronectin (ligand) binding to αvβ3,αvβ3 [1],did not interfere
same,blocking of fibrinogen (ligand) binding to gpIIb/IIIa (αIIbβ3),αIIbβ3 [2],blocked
fibrinogen: natural high affinity ligand of αIIbβ3,association rate constant for binding to αIIbβ3,αIIbβ3 [8],850000 M⁻¹ s⁻¹
same,association rate constant for binding to αIIbβ3,αIIbβ3 [9],600000 M⁻¹ s⁻¹
Mab 8: Fab-displayed RGDC2 binding site VGCPIPRGDWRECYYMDV (SEQ ID NO 8) (Fab-displayed binding site),"binding to αv/β5 (ELISA, immunoreaction)",αvβ5 [4],not to αv/β5
same,"binding to αv/β3 (ELISA, immunoreaction)",αvβ3 [7],bound specifically
